Results published in publication PMC7481795 (2020).

Target: acid alpha-glucosidase (GAA phosphodiester) (Homo sapiens, UniProt P10253)
Assay: SPR

B1: CI-MPR domains 1-5 1-726 (protein)
chain: MGAAAGRSPHLGPAPARRPQRSLLLLQLLLLVAAPGSTQAQAAPFPELCSYTWEAVDTKNNVLYKINICGSVDIVQCGPSSAVCMHDLKTRTYHSVGDSVLRSATRSLLEFNTTVSCDQQGTNHRVQSSIAFLCGKTLGTPEFVTATECVHYFEWRTTAACKKDIFKANKEVPCYVFDEELRKHDLNPLIKLSGAYLVDDSDPDTSLFINVCRDIDTLRDPGSQLRACPPGTAACLVRGHQAFDVGQPRDGLKLVRKDRLVLSYVREEAGKLDFCDGHSPAVTITFVCPSERREGTIPKLTAKSNCRYEIEWITEYACHRDYLESKTCSLSGEQQDVSIDLTPLAQSGGSSYISDGKEYLFYLNVCGETEIQFCNKKQAAVCQVKKSDTSQVKAAGRYHNQTLRYSDGDLTLIYFGGDECSSGFQRMSVINFECNKTAGNDGKGTPVFTGEVDCTYFFTWDTEYACVKEKEDLLCGATDGKKRYDLSALVRHAEPEQNWEAVDGSQTETEKKHFFINICHRVLQEGKARGCPEDAAVCAVDKNGSKNLGKFISSPMKEKGNIQLSYSDGDDCGHGKKIKTNITLVCKPGDLESAPVLRTSGEGGCFYEFEWHTAAACVLSKTEGENCTVFDSQAGFSFDLSPLTKKNGAYKVETKKYDFYINVCGPVSVSPCQPDSGACQVAKSDEKTWNLGLSNAKLSYYDGMIQLNYRGGTPYNNERHTPRATL
modifications: GAA N-glycans modified to contain only phosphodiesters
In the case of B1, the Kd is reported as roughly 0.06 µM.
